In EP3386536A2 (dated 2018):

Biological target: T1, human FcγRIIIA F158 (human, UniProt P08637 17-208)
T1 construct: also called CD16a F158 variant
Test: BLI (Octet Red 96), FcγR on anti-his tag biosensor, conjugate in solution, avidity binding model

T1 sequence (P08637 17-208 limits assumed): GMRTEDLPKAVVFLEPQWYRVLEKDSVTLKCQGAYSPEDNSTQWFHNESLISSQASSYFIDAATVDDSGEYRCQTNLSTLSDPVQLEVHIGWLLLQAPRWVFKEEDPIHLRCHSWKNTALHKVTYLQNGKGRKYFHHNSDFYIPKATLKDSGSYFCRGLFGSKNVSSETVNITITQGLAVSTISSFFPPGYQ

B1: SBT040-G2 ATAC11 (antibody, human IgG2, kappa)
heavy: not shown
light: DIQMTQSPSSVSASVGDRVTITCRASQGIYSWLAWYQQKPGKAPNLLIYTASTLQSGVPSRFSGSGSGTDFTLTISSLQPEDFATYYCQQANIFPLTFGGGTKVEIKRTVAAPSVFIFPPSDEQLKSGTASVVCLLNNFYPREAKVQWKVDNALQSGNSQESVTEQDSKDSTYSLSSTLTLSKADYEKHKVYACEVTHQGLSSPVTKSFNRGEC
modifications: ATAC11 may also sit on light chain cysteines; sites not stated; ATAC11 (maleimide linker with gardiquimod) conjugated by cysteine-based bioconjugation; sites not stated; molar ratio about 4.0
notes: also called SBT-040-G2WT conjugated to ATAC11
  fold change against the unconjugated SBT040-G2: ≤ 2 fold
